The target of test [1] is T1, human myostatin (human) (UniProt O14793).
T1 sequence (biotinylated in selections and radioactive assays (site not stated), looked up): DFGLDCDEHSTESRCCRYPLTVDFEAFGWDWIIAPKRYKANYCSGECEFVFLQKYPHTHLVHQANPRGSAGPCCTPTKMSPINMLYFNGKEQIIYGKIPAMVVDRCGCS

Test [2] deals with T1, human myostatin (human). Description: cell-based or functional assay.

B1: M3-1, E. coli-produced (designed binder)
chain: MTIPEIIIKVRGTQVVGSDMTVIVEFTNPLKETLRNVWVHLDGPGVTRPMKKMFRAIPMNHKVQWEEVVRPWVSGHRKLIASMPQLFHIHVYGELDVQIQRRHHHHHH
On to B1, for which the EC50 (read off the curve); blocking of myostatin-induced inhibition of MPC-11 proliferation in the test with human myostatin (human) [1] was 30 nM.

B2: M56, E. coli-produced (designed binder)
chain: MTIPEIIIKVRGTQVVGSDMTVIVEFSNPFKETLRNVWVHLDGPGVTRPMKKMFSEIRPNSTVQWEEVVRPWVSGHRKLIARCSLSPWHVYGELDVQIQRRHHHHHH
With B2, the MPC-11 cell proliferation assay, IC50 in the test with human myostatin (human) [2] lay within 150 to 200 nM.

B3: M71, E. coli-produced (designed binder)
chain: MTIPEIIIKVRGTQVVGSDMTVIVEFTNPFKETLRSVWVHLDGPGVTRPMKKMFSEIRPNSTVQWEEVVRPWVSGHRKLIARCSLSPWHVYGELDVQIQRRHHHHHH
B3 displayed an MPC-11 cell proliferation assay, IC50 in the test with human myostatin (human) [2] of 150 to 200 nM.

B4: M07, E. coli-produced (designed binder)
chain: MTIPEIIIKVRGTQVVGSDMTVIVEFTNPFKETLRSVWVHLDGPGVTRPMKKMFREIPPKTTVQWEEVVRPWVSGHRKLIARCQLLPWHVYGELDVQIQRRHHHHHH
In turn, B4 displayed an MPC-11 cell proliferation assay, IC50 with human myostatin (human) [2] of 150 to 200 nM.
